{"source": "paper PMC10786891", "about": "“Massively parallel profiling of RNA-targeting CRISPR-Cas13d”", "data": [{"molecular_target": "T1, EsCas13d, nuclease-dead (Eubacterium siraeum, UniProt B0MS50, R295A;H300A;R849A;H854A)", "T1 sequence": "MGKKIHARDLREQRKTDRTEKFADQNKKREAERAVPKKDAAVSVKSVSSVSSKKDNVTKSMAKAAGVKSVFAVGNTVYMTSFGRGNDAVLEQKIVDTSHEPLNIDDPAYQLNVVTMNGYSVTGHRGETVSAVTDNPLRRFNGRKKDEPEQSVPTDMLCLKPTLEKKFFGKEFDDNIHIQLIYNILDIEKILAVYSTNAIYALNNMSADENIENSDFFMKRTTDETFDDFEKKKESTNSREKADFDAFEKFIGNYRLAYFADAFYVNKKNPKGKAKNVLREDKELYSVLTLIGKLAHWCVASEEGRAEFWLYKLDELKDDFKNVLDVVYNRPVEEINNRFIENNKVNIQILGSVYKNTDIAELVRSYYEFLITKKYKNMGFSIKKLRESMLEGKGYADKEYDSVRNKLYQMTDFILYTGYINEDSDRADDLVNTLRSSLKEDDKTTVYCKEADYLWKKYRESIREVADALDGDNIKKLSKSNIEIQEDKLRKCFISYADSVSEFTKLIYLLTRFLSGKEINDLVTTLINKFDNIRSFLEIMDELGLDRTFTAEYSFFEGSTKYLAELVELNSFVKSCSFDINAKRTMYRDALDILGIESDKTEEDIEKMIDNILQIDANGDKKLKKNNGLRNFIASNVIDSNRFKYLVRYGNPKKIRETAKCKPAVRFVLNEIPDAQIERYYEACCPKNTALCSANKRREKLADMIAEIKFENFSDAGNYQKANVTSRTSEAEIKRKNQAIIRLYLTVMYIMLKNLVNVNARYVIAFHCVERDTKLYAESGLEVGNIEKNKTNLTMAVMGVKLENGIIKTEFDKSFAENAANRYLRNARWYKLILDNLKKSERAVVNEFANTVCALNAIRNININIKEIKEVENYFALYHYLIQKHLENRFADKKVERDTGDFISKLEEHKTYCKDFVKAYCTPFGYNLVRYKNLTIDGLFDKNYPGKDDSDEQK", "experiment": "crRNA (strand 1, pre-loaded); Mg2+; 40 mM Tris-HCl pH 7.5, 150 mM NaCl, 6 mM MgCl2, 1 mM DTT, 0.1% Tween-20, 0.2 mg/ml BSA; 25 C; 10 min per concentration, then washed", "settings": "tags: His6-TwinStrep-SUMO cleaved; N-terminal SNAP kept (SNAP-Surface 488); label: 3' end held by stalled T7 RNA polymerase", "units": {"Kd": "nM"}, "values": [{"binder": "target 2 MT 5'PFS ACA 3'PFS UCC (mixed) RNA 1: CACCCGUGCAAAAUUGCAGGGGUCUAAAACCUUCUCCAAAUUGUUUCAUCCU RNA 2: GGGAAUGGAUCCACAUCUACGAAUUCACAAGGAUGAAACAAUUUGGAGAAGUCCAGAUCGGAAGAGCACACGU", "Kd": "10 ± 2.5"}, {"binder": "target 2 MT 5'PFS ACA 3'PFS UCU (mixed) RNA 1: CACCCGUGCAAAAUUGCAGGGGUCUAAAACCUUCUCCAAAUUGUUUCAUCCU RNA 2: GGGAAUGGAUCCACAUCUACGAAUUCACAAGGAUGAAACAAUUUGGAGAAGUCUAGAUCGGAAGAGCACACGU", "Kd": "8.6 ± 2.3"}, {"binder": "target 2 MT 5'PFS CGG 3'PFS UGU (mixed) RNA 1: CACCCGUGCAAAAUUGCAGGGGUCUAAAACCUUCUCCAAAUUGUUUCAUCCU RNA 2: GGGAAUGGAUCCACAUCUACGAAUUCCGGAGGAUGAAACAAUUUGGAGAAGUGUAGAUCGGAAGAGCACACGU", "Kd": "9.3 ± 1.6"}, {"binder": "target 2 MT 5'PFS CUU 3'PFS AGA (mixed) RNA 1: CACCCGUGCAAAAUUGCAGGGGUCUAAAACCUUCUCCAAAUUGUUUCAUCCU RNA 2: GGGAAUGGAUCCACAUCUACGAAUUCCUUAGGAUGAAACAAUUUGGAGAAGAGAAGAUCGGAAGAGCACACGU", "Kd": "2.9 ± 0.4"}, {"binder": "target 2 MT 5'PFS CGG 3'PFS UGC (mixed) RNA 1: CACCCGUGCAAAAUUGCAGGGGUCUAAAACCUUCUCCAAAUUGUUUCAUCCU RNA 2: GGGAAUGGAUCCACAUCUACGAAUUCCGGAGGAUGAAACAAUUUGGAGAAGUGCAGAUCGGAAGAGCACACGU", "Kd": "4.3 ± 0.5"}, {"binder": "target 2 MT 5'PFS UAU 3'PFS UCA (mixed) RNA 1: CACCCGUGCAAAAUUGCAGGGGUCUAAAACCUUCUCCAAAUUGUUUCAUCCU RNA 2: GGGAAUGGAUCCACAUCUACGAAUUCUAUAGGAUGAAACAAUUUGGAGAAGUCAAGAUCGGAAGAGCACACGU", "Kd": "24 ± 5"}, {"binder": "target 2 MT 5'PFS UAC 3'PFS AGC (mixed) RNA 1: CACCCGUGCAAAAUUGCAGGGGUCUAAAACCUUCUCCAAAUUGUUUCAUCCU RNA 2: GGGAAUGGAUCCACAUCUACGAAUUCUACAGGAUGAAACAAUUUGGAGAAGAGCAGAUCGGAAGAGCACACGU", "Kd": "4.2 ± 0.5"}, {"binder": "target 2 MT 5'PFS AGU 3'PFS CCG (mixed) RNA 1: CACCCGUGCAAAAUUGCAGGGGUCUAAAACCUUCUCCAAAUUGUUUCAUCCU RNA 2: GGGAAUGGAUCCACAUCUACGAAUUCAGUAGGAUGAAACAAUUUGGAGAAGCCGAGAUCGGAAGAGCACACGU", "Kd": "10.2 ± 0.9"}, {"binder": "target 2 MT 5'PFS UGC 3'PFS CCA (mixed) RNA 1: CACCCGUGCAAAAUUGCAGGGGUCUAAAACCUUCUCCAAAUUGUUUCAUCCU RNA 2: GGGAAUGGAUCCACAUCUACGAAUUCUGCAGGAUGAAACAAUUUGGAGAAGCCAAGAUCGGAAGAGCACACGU", "Kd": "16 ± 5"}, {"binder": "target 2 MT 5'PFS GUG 3'PFS CCG (mixed) RNA 1: CACCCGUGCAAAAUUGCAGGGGUCUAAAACCUUCUCCAAAUUGUUUCAUCCU RNA 2: GGGAAUGGAUCCACAUCUACGAAUUCGUGAGGAUGAAACAAUUUGGAGAAGCCGAGAUCGGAAGAGCACACGU", "Kd": "13.6 ± 0.9"}, {"binder": "target 2 MT 5'PFS GUG 3'PFS CCA (mixed) RNA 1: CACCCGUGCAAAAUUGCAGGGGUCUAAAACCUUCUCCAAAUUGUUUCAUCCU RNA 2: GGGAAUGGAUCCACAUCUACGAAUUCGUGAGGAUGAAACAAUUUGGAGAAGCCAAGAUCGGAAGAGCACACGU", "Kd": "21.2 ± 1.8"}, {"binder": "target 2 MT 5'PFS UAC 3'PFS UAC (mixed) RNA 1: CACCCGUGCAAAAUUGCAGGGGUCUAAAACCUUCUCCAAAUUGUUUCAUCCU RNA 2: GGGAAUGGAUCCACAUCUACGAAUUCUACAGGAUGAAACAAUUUGGAGAAGUACAGAUCGGAAGAGCACACGU", "Kd": "6.2 ± 0.8"}, {"binder": "target 2 MT 5'PFS AGU 3'PFS CCA (mixed) RNA 1: CACCCGUGCAAAAUUGCAGGGGUCUAAAACCUUCUCCAAAUUGUUUCAUCCU RNA 2: GGGAAUGGAUCCACAUCUACGAAUUCAGUAGGAUGAAACAAUUUGGAGAAGCCAAGAUCGGAAGAGCACACGU", "Kd": "36 ± 11"}, {"binder": "target 2 MT 5'PFS UAA 3'PFS CGC (mixed) RNA 1: CACCCGUGCAAAAUUGCAGGGGUCUAAAACCUUCUCCAAAUUGUUUCAUCCU RNA 2: GGGAAUGGAUCCACAUCUACGAAUUCUAAAGGAUGAAACAAUUUGGAGAAGCGCAGAUCGGAAGAGCACACGU", "Kd": "4.3 ± 0.5"}, {"binder": "target 2 MT 5'PFS UAC 3'PFS AGG (mixed) RNA 1: CACCCGUGCAAAAUUGCAGGGGUCUAAAACCUUCUCCAAAUUGUUUCAUCCU RNA 2: GGGAAUGGAUCCACAUCUACGAAUUCUACAGGAUGAAACAAUUUGGAGAAGAGGAGAUCGGAAGAGCACACGU", "Kd": "4.7 ± 0.7"}, {"binder": "target 2 MT 5'PFS UGC 3'PFS CCG (mixed) RNA 1: CACCCGUGCAAAAUUGCAGGGGUCUAAAACCUUCUCCAAAUUGUUUCAUCCU RNA 2: GGGAAUGGAUCCACAUCUACGAAUUCUGCAGGAUGAAACAAUUUGGAGAAGCCGAGAUCGGAAGAGCACACGU", "Kd": "61 ± 15"}, {"binder": "target 2 MT 5'PFS UAC 3'PFS UAG (mixed) RNA 1: CACCCGUGCAAAAUUGCAGGGGUCUAAAACCUUCUCCAAAUUGUUUCAUCCU RNA 2: GGGAAUGGAUCCACAUCUACGAAUUCUACAGGAUGAAACAAUUUGGAGAAGUAGAGAUCGGAAGAGCACACGU", "Kd": "6.7 ± 0.6"}, {"binder": "target 2 MT 5'PFS CUU 3'PFS CGU (mixed) RNA 1: CACCCGUGCAAAAUUGCAGGGGUCUAAAACCUUCUCCAAAUUGUUUCAUCCU RNA 2: GGGAAUGGAUCCACAUCUACGAAUUCCUUAGGAUGAAACAAUUUGGAGAAGCGUAGAUCGGAAGAGCACACGU", "Kd": "3.8 ± 0.5"}, {"binder": "target 2 MT 5'PFS CGG 3'PFS UGA (mixed) RNA 1: CACCCGUGCAAAAUUGCAGGGGUCUAAAACCUUCUCCAAAUUGUUUCAUCCU RNA 2: GGGAAUGGAUCCACAUCUACGAAUUCCGGAGGAUGAAACAAUUUGGAGAAGUGAAGAUCGGAAGAGCACACGU", "Kd": "6.9 ± 1.3"}, {"binder": "target 2 MT 5'PFS CUU 3'PFS AGC (mixed) RNA 1: CACCCGUGCAAAAUUGCAGGGGUCUAAAACCUUCUCCAAAUUGUUUCAUCCU RNA 2: GGGAAUGGAUCCACAUCUACGAAUUCCUUAGGAUGAAACAAUUUGGAGAAGAGCAGAUCGGAAGAGCACACGU", "Kd": "2.28 ± 0.22"}, {"binder": "target 2 MT 5'PFS UAC 3'PFS AGA (mixed) RNA 1: CACCCGUGCAAAAUUGCAGGGGUCUAAAACCUUCUCCAAAUUGUUUCAUCCU RNA 2: GGGAAUGGAUCCACAUCUACGAAUUCUACAGGAUGAAACAAUUUGGAGAAGAGAAGAUCGGAAGAGCACACGU", "Kd": "6.7 ± 0.9"}, {"binder": "target 1 C4A,C21A (mixed) RNA 1: CACCCGUGCAAAAAUGCAGGGGUCUAAAACUGAGCGGAUAACCUCUCUAUGG RNA 2: GGGAAUGGAUCCACAUCUACGAAUUCGUACAAUAGAGAGGUUAUCCGAUCACCGAGAUCGGAAGAGCACACGU", "Kd": "41 ± 9"}, {"binder": "target 1 insC 3' of 13,insA 3' of 6 (mixed) RNA 1: CACCCGUGCAAAAAUGCAGGGGUCUAAAACUGAGCGGAUAACCUCUCUAUGG RNA 2: GGGAAUGGAUCCACAUCUACGAAUUCGUACCAUAGAGAGCGUUAUCCAGCUCACCGAGAUCGGAAGAGCACACGU", "Kd": "11.7 ± 0.9"}, {"binder": "target 1 U3G,A18C (mixed) RNA 1: CACCCGUGCAAAAAUGCAGGGGUCUAAAACUGAGCGGAUAACCUCUCUAUGG RNA 2: GGGAAUGGAUCCACAUCUACGAAUUCGUACCAUCGAGAGGUUAUCCGCGCACCGAGAUCGGAAGAGCACACGU", "Kd": "52 ± 4"}]}]}
